Here are results for one substance from patent publication US20070101449A1.

Values joined by “and” are separate entries in the source; they are usually repeats but may differ in a detail not shown here. Identical values can stand only once.

The target in assay [1] is APP695-derived polypeptide carrying the Swedish mutant NLDA at the β secretase cleavage site (UniProt P05067). The assay can be described thus: cell-based or functional assay.
Assay [2] addresses APP695-derived polypeptide having the modified sequence NFEV at the β secretase cleavage site (UniProt P05067). In words: cell-based or functional assay.

For the substance “human β secretase (from UniProt P56817 46-501) (enzyme)”, the levels of Aβ (IP/Western blot of conditioned media of transfected HEK293T cells) (fold over wild-type KMDA) is 15 and 20 in assay [1]; 15 and 20 in assay [2].
